Source: US20060040319A1, “Multiple sensor-containing active modified polypeptides, preparation and uses thereof” (priority 2000, published 2006)
Where no end group is shown, it is not given here.

How the values were obtained:
[1] = target: T1, GST fusion of mouse c-Abl containing only the SH2 and kinase domains (Mus musculus, UniProt P00520); test: Kinase assay with truncated c-Abl containing only the SH2 and kinase domains; format: biochemical; conditions: truncated c-Abl, after 60 min
T1 construct: a GST fusion of mouse c-Abl containing only the SH2 and kinase domains; made in house; host or cells: E. coli BL21
T1 sequence (P00520 127-493): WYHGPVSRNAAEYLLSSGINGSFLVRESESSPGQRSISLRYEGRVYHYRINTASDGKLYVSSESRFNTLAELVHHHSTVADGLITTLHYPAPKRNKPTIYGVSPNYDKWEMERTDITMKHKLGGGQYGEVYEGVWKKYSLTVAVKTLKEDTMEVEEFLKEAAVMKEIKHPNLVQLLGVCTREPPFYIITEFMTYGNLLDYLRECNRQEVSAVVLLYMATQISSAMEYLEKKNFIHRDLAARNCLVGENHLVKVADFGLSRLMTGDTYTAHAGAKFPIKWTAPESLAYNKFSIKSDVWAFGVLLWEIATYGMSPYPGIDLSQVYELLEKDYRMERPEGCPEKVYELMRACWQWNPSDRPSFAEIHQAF
Description: (§1) Purified Rh-(Crk-II)-Fl prepared as described in Example I was treated with either full length recombinant (Baculovirus/SF9) mouse c-Abl or a GST fusion of mouse c-Abl containing only the SH2 and kinase domains (expressed in E. coli BL21 essentially as described (19)). In a typical experiment, the appropriate c-Abl construct was incubated in reaction buffer (2 mM DTT, 0.2 mg/ml BSA, 10 mM Mg^2+, 50 mM Tris, pH 7.4, either with or without ATP (500 μM)) for 5 min at 30° C. before addition of Rh-(Crk-II)-Fl (final concentration=0.25 μM). In order to ensure that equal amounts of active c-Abl enzyme were added to each reaction, preliminary titration experiments were carried out using an optimized peptide substrate for c-Abl (EAIYAAPFAKKK (SEQ ID No:2) (20)). […] In all cases, aliquots of the reaction mixtures were removed at ˜1 min and 60 min, quenched with EDTA (final conc.=40 mM), and then analyzed by native-PAGE and/or Western blotting and fluorescence spectroscopy. […]
(§2) Fluorescence Spectroscopy. […] Excitation was at 490 nm with a 2.5 nm slit and the fluorescence emission was monitored at 520 nm and 580 nm through a 4 nm slit. […] Rh-(Crk-II)-Fl was treated with full length recombinant c-Abl and aliquots of the reaction mixture were analyzed by fluorescence spectroscopy and western blotting at ˜1 min and 60 min time-points. […]

[2] = target: T2, N-SH3 domain of Crk-II (binding to c-Abl) (Mus musculus, UniProt Q64010); test: Peptide inhibition study: Crk-II phosphorylation by full length c-Abl in presence of N-SH3 ligand (Rh-(Crk-II)-Fl biosensor); format: biochemical; conditions: fluorescence-based assay
T2 construct: extra Gly plus fluorescein peptide (Cys-Fl-PS, remainder after PreScission site) (C); made in house; host or cells: E. coli BL21 (Crk-II-intein fusion), then ligation of synthetic peptides
T2 sequence (Q64010 with tags, fused parts or gaps): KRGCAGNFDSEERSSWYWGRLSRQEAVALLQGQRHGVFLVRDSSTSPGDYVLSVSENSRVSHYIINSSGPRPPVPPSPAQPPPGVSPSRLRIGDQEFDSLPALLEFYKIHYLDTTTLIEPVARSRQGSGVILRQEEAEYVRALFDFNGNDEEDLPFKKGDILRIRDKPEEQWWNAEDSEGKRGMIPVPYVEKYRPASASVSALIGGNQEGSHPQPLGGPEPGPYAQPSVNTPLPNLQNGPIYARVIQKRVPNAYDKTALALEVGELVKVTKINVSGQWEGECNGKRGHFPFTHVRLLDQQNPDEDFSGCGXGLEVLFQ
Description: as §1, §2

Row | phosphorylation of optimized peptide substrate [1] | effect on Crk-II phosphorylation by c-Abl [2] | Substance
1 | completely phosphorylated |  | EAIYAAPFAKKK (Peptide Substrate) [optimized peptide substrate for c-Abl, reference compound]
2 |  | partially inhibit Crk-II phosphorylation | PPPALPPKRRR-NH2 [high affinity N-SH3 ligand]
